According to patent US20120124684A1:

Molecular target: purified glutathione reductase (GR)
Assay: cell-based or functional assay

purified αBC
GR activity in vitro (purified GR with purified αBC, compared to a BSA control; proteins added at a 1:4 molar ratio to GR): 18%
